Reference: the supplement of paper PMC10567573

B1: CDC25B (parent)
chain: ELKTFRLKTRSWAGERSRRELCSR

Variants of: B1
Test: protein stability index of a GFP-peptide fusion (GPS, HEK-293T) (PSI 1-6); higher = more stable
Conditions: c terminus: a fixed tail appended
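Also: lentivirally expressed fusions sorted by FACS into six bins by GFP to DsRed ratio, PSI derived from sequencing read proportions per bin multiplied by bin number.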

Protein stability index, by site and new letter:
F5: C 3.09 | W 2.87 | K 4.24 | R 3.78 | G 3.69 | V 3.96 | H 3.92 | E 2.5 | A 4.09 | D 4.08 | Q 3.67 | P 4.43 | M 3.6 | T 3.82 | Y 3.94 | I 3.59 | N 3.63 | L 3.65 | S 3.94
W12: H 3.64 | Q 3.49 | M 2.43 | A 3.16 | P 3.55 | N 3.45 | C 2.87 | I 3.3 | D 4.12 | E 4.2 | G 3.54 | V 3.45 | T 3.38 | Y 3.66 | R 4.08 | F 3.34 | L 3.41 | S 3.54 | K 3.94
K3: Y 2.91 | S 3.62 | W 2.44 | V 2.67 | T 3.2
T9: Y 3.16 | G 4 | M 2.3 | L 2.09 | H 3.29 | P 3.14 | K 3.84 | I 1.99 | V 2.6 | N 3.66 | C 3.58 | D 3.35 | F 2.18 | R 4.65 | A 3.66 | W 1.54 | S 4.09 | E 3.69 | Q 3.13
K8: D 3.41 | R 5.09 | S 3.55 | V 2.68 | Q 3.34 | N 2.99 | L 3.2 | Y 2.71 | I 1.92 | G 2.4 | A 2.88 | C 2.73 | E 3.2 | F 2.28 | M 2.8 | H 3.07 | P 2.77 | W 2.1 | T 3.65
E15: N 2.66 | T 2.98 | F 2.58 | H 3.02 | W 2.4 | R 3.06 | Q 3.06 | S 2.96 | P 3.2 | G 2.68 | M 2.67 | Y 2.46 | I 2.75 | L 2.78 | C 2.44 | A 3.04 | K 3.3 | V 2.51 | D 3.36
S17: L 2.87 | Q 3.35 | C 2.69 | F 2.24 | P 3.35 | V 2.36 | H 3.21 | Y 3.27 | T 3.33 | D 3.46 | M 2.52 | G 2.7 | K 2.77 | N 2.93 | R 2.63 | I 2.32 | E 4.03 | W 2.16 | A 3.4
R18: Q 4.01 | H 3.33 | G 2.95 | F 2.62 | D 3.4 | L 3.23 | S 3.85 | M 3.36 | Y 2.58 | T 3.38 | W 2.84 | V 3.6 | E 3.52 | K 3.36 | N 3.18 | I 3.04 | P 3.64 | A 3.85 | C 2.23
S11: W 2.57 | H 1.95 | P 2.59 | E 3.11 | R 2.4 | A 2.68 | I 2.71 | F 2.58 | Q 2.58 | K 2.64 | L 2.61 | G 2.94 | D 2.95 | C 2.63 | T 3.1 | V 2.11 | M 2.42 | N 3.2
L7: K 4.68 | C 3.98 | A 3.75 | Y 3.29 | E 4.07 | D 3.86 | W 2.99 | V 3.33 | S 3.91 | N 3.57 | T 4.08 | I 3.25 | P 3.99 | G 4.12 | R 4.57 | M 3.81 | Q 3.75 | H 3.6
R16: C 2.97 | K 2.81 | F 2.6 | T 3.87 | L 2.91 | P 3.67 | Y 3.61 | M 2.97 | Q 3.62 | V 1.93 | I 2.53 | G 3.74 | E 3.64 | N 3.34 | D 3.83 | H 3.46 | A 3.64 | W 2.55 | S 3.9
R6: T 3.39 | Q 3.75 | M 2.14 | A 2.78 | K 2.85 | Y 2.42 | N 3.3 | W 1.89 | D 3.17 | H 3.25 | L 2.04 | F 1.75 | S 3.33 | V 2.32 | I 2.06 | E 1.84 | P 3.75 | C 2.14 | G 3.34
E20: F 2.52 | H 3.52 | A 3.25 | D 2.98 | N 3.42 | Y 2.69 | L 2.42 | S 2.92 | V 2.9 | W 2.57 | K 3.47 | C 2.72 | T 2.88 | P 3.08 | R 2.78 | Q 3.53 | I 2.66 | M 3.25 | G 2.65
R19: Y 3.51 | K 3.26 | P 2.98 | W 2.02 | E 3.66 | Q 3.45 | I 2.57 | F 2.49 | M 3 | G 3.46 | D 2.88 | N 3.38 | H 3.13 | V 2.74 | A 4.2 | S 3.28 | T 2.57 | L 3.2 | C 2.25
L21: K 3.76 | A 3.91 | H 3.31 | I 2.81 | G 3.75 | D 3.98 | C 3.66 | F 3.12 | E 3.6
R10: C 2.94 | M 2.92 | Y 3.19 | F 2.54 | A 3.15 | T 2.37 | N 3.13 | W 2.41 | K 3.66 | I 2.8 | V 2.45 | P 3.13 | D 3.62 | E 2.66 | H 3.04 | Q 3.1 | S 3.5 | L 3.38 | G 2.44
G14: S 2.39 | I 2.67 | L 2.61 | Y 2.05 | E 3.16 | K 2.7 | M 2.66 | Q 2.58 | P 2.25 | F 3.15 | H 2.65 | A 2.42 | T 3.53 | C 2.5 | N 2.48 | R 2.73 | V 2.19 | D 3.62 | W 3.23
T4: P 3.41 | N 2.09 | L 2.85 | C 2.56 | E 3.16 | Y 3.27 | I 2.26 | K 2.61 | V 3.27 | H 3.27 | Q 3.18 | A 3.47 | F 2.79 | D 4.42 | S 3.6 | M 2.96 | R 2.52 | G 2.9
A13: P 3.84 | C 2.94 | R 3.49 | Y 2.22 | S 2.85 | Q 3.01 | L 2.62 | K 3.31 | W 2.2 | F 1.88 | V 2.44 | G 3.41 | E 3.23 | D 3.98 | H 3.81 | I 2.22 | T 3.1 | N 3.81 | M 2.92
